# According to PMC11598873, “Neutralizing VHH Antibodies Targeting the Spike Protein of PEDV” (Veterinary Sciences, 2024):
# Tests used:
# [1] = target: T1, PEDV S protein of strain PEDV-JSXH-2021 in infected Vero E6 cells (Porcine epidemic diarrhea virus, …, UniProt Q91AV1, strain); assay: cell-based or functional assay
# [2] = target: T1, PEDV S protein of strain PEDV-JSXH-2021 …; assay: immunostaining of cells or tissue; IFA on Vero E6 cells infected with PEDV-JSXH-2021 (MOI 0.01, 48 h), fixed with 4% paraformaldehyde; purified VHH as primary antibody overnight at 4 °C, mouse anti-His tag, then Alexa Fluor 555 goat anti-mouse IgG; uninfected cells as mock; conditions: one partner purified
# [3] = target: T2, Recombinant PEDV S protein, strain PEDV-JSXH-2021, 3 × FLAG (pFastBac1-PEDV-S, rBV-PEDV-S) (Porcine epidemic diarrhea virus, …, UniProt Q91AV1, strain); assay: immunostaining of cells or tissue; IFA on Sf9 cells infected with rBV-PEDV-S (MOI 0.1, 48 h), fixed with 4% paraformaldehyde; diluted refolded VHH as primary antibody, mouse anti-His tag, then Alexa Fluor 488 goat anti-mouse IgG; uninfected Sf9 cells as mock; conditions: one partner purified
# T2 construct: Spike (S) protein of porcine epidemic diarrhea virus strain PEDV-JSXH-2021; band of approximately 180 kDa on the blot; the plasmid was synthesised; also called PEDV S protein expressed in Sf9 cells; source: Sf9 cells infected with recombinant baculovirus rBV-PEDV-S; in fixed cells and in supernatant of sonicated cells; not shown: 3xFLAG, C-terminal, kept
# [4] = target: T3, PEDV spike (S) protein, strain PEDV-JSXH-2021, bait pGBKT7-PEDV-S (Porcine epidemic diarrhea virus, …, UniProt Q91AV1, strain); assay: two-hybrid; yeast AH109; bait in pGBKT7, prey in pGADT7; growth on SD-TL, SD-TLH, SD-TLHA and blue colour on SD-TLHA + X-α-gal, 30 °C, 3–4 days; positive clones verified again after the library screen; conditions: partners not purified
# T3 construct: Spike (S) protein of porcine epidemic diarrhea virus strain PEDV-JSXH-2021 (G1b type); source: yeast two-hybrid fusion (AH109)
binder,measurement,setting,value
"VHH1–89 (recombinant, pcDNA3.1-VHH, 6 × His) (VHH) VHH: QVQLQESGGGLVQAGGSLRLSCAASGYISDAYYMGWYRQAPGKEREFVATITHGTNTYYADSVKGRFTISRDNAKNTVYLQMNSLKPEDTAVYYCAVFLARIASFLPILLISLRYWGQGTQVTVSS","concentration of VHH that completely neutralises infection of Vero E6 cells by PEDV-JSXH-2021 (serial dilutions from 200 ng/µL, read by IFA after 5 to 7 days)",[1],12.5 ng/µL
"VHH2–28 (recombinant, pcDNA3.1-VHH, 6 × His) (VHH) VHH: QVQLQESGGGLVQAGGSLRLSCAASGSISLHPQMGWYRQAPGKERELVAGIATGGNTNYADSVKGRFTISRDNAKNTVYLQMNSLKPEDTAVYYCAVNEYHPRAMYALYIYWGQGTQVTVSS","concentration of VHH that completely neutralises infection of Vero E6 cells by PEDV-JSXH-2021 (serial dilutions from 200 ng/µL, read by IFA after 5 to 7 days)",[1],50 ng/µL
"VHH2–77 (recombinant, pcDNA3.1-VHH, 6 × His) (VHH) VHH: QVQLQESGGGLVQAGGSLRLSCAASGYISDAYYMGWYRQAPGKEREFVATITHGTNTYYADSVKGRFTISRDNAKNTVYLQMNSLKPEDTAVYYCAVFSTISVNIYTFLYVIFFYWGQGTQVTVSS","concentration of VHH that completely neutralises infection of Vero E6 cells by PEDV-JSXH-2021 (serial dilutions from 200 ng/µL, read by IFA after 5 to 7 days)",[1],12.5 ng/µL
"VHH1–15 (recombinant, pcDNA3.1-VHH, 6 × His) (VHH, same VHH as m2; also called PEDV S-VHH; not shown: His6, C-terminal, kept) VHH: QVQLQESGGGLVQAGGSLRLSCAASGYISDAYYMGWYRQAPGKEREFVATITHGTNTYYADSVKGRFTISRDNAKNTVYLQMNSLKPEDTAVYYCAVLETRSYSFRYWGQGTQVTVSS",binding result,[2],binds
same,binding result,[3],binds
"VHH1–15 (pGADT7-VHH library clone) (VHH, clone from a synthetic nanobody yeast library; also called PEDV S-VHH; source: yeast two-hybrid fusion (AH109)) VHH: QVQLQESGGGLVQAGGSLRLSCAASGYISDAYYMGWYRQAPGKEREFVATITHGTNTYYADSVKGRFTISRDNAKNTVYLQMNSLKPEDTAVYYCAVLETRSYSFRYWGQGTQVTVSS",binding result,[4],binds
"VHH2–50 (recombinant, pcDNA3.1-VHH, 6 × His) (VHH) VHH: QVQLQESGGGLVQAGGSLRLSCAASGYISDAYYMGWYRQAPGKEREFVATITHGTNTYYADSVKGRFTISRDNAKNTVYLQMNSLKPEDTAVYYCAALFSIIVYYFSNSNLVFNYWGQGTQVTVSS","concentration of VHH that completely neutralises infection of Vero E6 cells by PEDV-JSXH-2021 (serial dilutions from 200 ng/µL, read by IFA after 5 to 7 days)",[1],25 ng/µL
"VHH2–18 (recombinant, pcDNA3.1-VHH, 6 × His) (VHH) VHH: QVQLQESGGGLVQAGGSLRLSCAASGYISDAYYMGWYRQAPGKEREFVATITHGTNTYYADSVKGRFTISRDNAKNTVYLQMNSLKPEDTAVYYCAASSLRKVLMTQLPTRLYYYWGQGTQVTVSS","concentration of VHH that completely neutralises infection of Vero E6 cells by PEDV-JSXH-2021 (serial dilutions from 200 ng/µL, read by IFA after 5 to 7 days)",[1],50 ng/µL
"VHH1–41 (recombinant, pcDNA3.1-VHH, 6 × His) (VHH) VHH: QVQLQESGGGLVQAGGSLRLSCAASGSIFTFVRMGWYRQAPGKERELVAGIAIGSITYYADSVKGRFTISRDNAKNTVYLQMNSLKPEDTAVYYCAAQSVQKAETTSPFAYWGQGTQVTVSS","concentration of VHH that completely neutralises infection of Vero E6 cells by PEDV-JSXH-2021 (serial dilutions from 200 ng/µL, read by IFA after 5 to 7 days)",[1],25 ng/µL
"VHH1–4 (recombinant, pcDNA3.1-VHH, 6 × His) (VHH) VHH: QVQLQESGGGLVQAGGSLRLSCAASGTIFCYGGMGWYRQAPGKERELVAGITMGTSTNYADSVKGRFTISRDNAKNTVYLQMNSLKPEDTAVYYCAAAVMVAGPYQSWHGYWGQGTQVTVSS","concentration of VHH that completely neutralises infection of Vero E6 cells by PEDV-JSXH-2021 (serial dilutions from 200 ng/µL, read by IFA after 5 to 7 days)",[1],100 ng/µL
